Laboratory results: the supplement of paper PMC5998384

How the values were obtained:
HeLa Kyoto [1] = assay: thermal stability score vs G1/S (z-score of summed log2 fold changes over temperatures); higher = more thermally stable than in G1/S
HeLa Kyoto [2] = assay: solubility in G1/S (NP-40 vs SDS abundance) (log2 ratio); higher = more soluble; details: cell cycle stage: G1/S
HeLa Kyoto [3] = assay: solubility change mitosis vs G1/S (difference of NP-40 vs SDS log2 ratios) (log2 ratio difference); higher = more soluble in mitosis
HeLa Kyoto [4] = assay: melting temperature (median over replicates), in situ; higher = more thermally stable
[5] = cell cycle stage: early G1 (4.5 h after nocodazole release)
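Throughout, for melting temperature (median over replicates), in situ: HeLa Kyoto cells synchronized by double thymidine or nocodazole block, proteins quantified by TMT10plex mass spectrometry, three independent biological replicates.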
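Throughout, for solubility change mitosis vs G1/S (difference of NP-40 vs SDS log2 ratios): synchronized HeLa Kyoto cells (double thymidine block for G1/S, nocodazole release for mitosis), protein amounts in NP-40 versus SDS lysates quantified by mass spectrometry, three biological replicates.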
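Throughout, for solubility in G1/S (NP-40 vs SDS abundance): HeLa Kyoto cells arrested at G1/S by double thymidine block, proteins quantified by TMT10plex mass spectrometry in mild NP-40 versus SDS extracts, three biological replicates.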
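Throughout, for thermal stability score vs G1/S (z-score of summed log2 fold changes over temperatures): synchronized HeLa Kyoto cells, proteins quantified by TMT10plex mass spectrometry, three biological replicates, mitosis taken 0.5 h after nocodazole release, G1/S directly after double thymidine block.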

| Sequence | thermal stability score (HeLa Kyoto [1]; [5]) | thermal stability score (HeLa Kyoto [1]; cell cycle stage: mitosis) | solubility in G1/S (log2) (HeLa Kyoto [2]) | solubility change mitosis (log2) (HeLa Kyoto [3]) | melting temperature (HeLa Kyoto [4]; cell cycle stage: G1/S) [°C] | melting temperature (HeLa Kyoto [4]; cell cycle stage: mitosis) [°C] |
| --- | --- | --- | --- | --- | --- | --- |
| MAAEGWIWRWGWGRRCLGRPGLLGPGPGPTTPLFLLLLLGSVTADITDGNSEHLKREHSLIKPYQGVGSSSMPLWDFQGSTMLTSQYVRLTPDERSKEGSIWNHQPCFLKDWEMHVHFKVHGTGKKNLHGDGIALWYTRDRLVPGPVFGSKDNFHGLAIFLDTYPNDETTERVFPYISVMVNNGSLSYDHSKDGRWTELAGCTADFRNRDHDTFLAVRYSRGRLTVMTDLEDKNEWKNCIDITGVRLPTGYYFGASAGTGDLSDNHDIISMKLFQLMVEHTPDEESIDWTKIEPSVNFLKSPKDNVDDPTGNFRSGPLTGWRVFLLLLCALLGIVVCAVVGAVVFQKRQERNKRFY [LMAN2] | 2.85 | 5.52 | 0.163 | -0.0609 | 54.1 | 53.8 |
| MAAEREPPPLGDGKPTDFEDLEDGEDLFTSTVSTLESSPSSPEPASLPAEDISANSNGPKPTEVVLDDDREDLFAEATEEVSLDSPEREPILSSEPSPAVTPVTPTTLIAPRIESKSMSAPVIFDRSREEIEEEANGDIFDIEIGVSDPEKVGDGMNAYMAYRVTTKTSLSMFSKSEFSVKRRFSDFLGLHSKLASKYLHVGYIVPPAPEKSIVGMTKVKVGKEDSSSTEFVEKRRAALERYLQRTVKHPTLLQDPDLRQFLESSELPRAVNTQALSGAGILRMVNKAADAVNKMTIKMNESDAWFEEKQQQFENLDQQLRKLHVSVEALVCHRKELSANTAAFAKSAAMLGNSEDHTALSRALSQLAEVEEKIDQLHQEQAFADFYMFSELLSDYIRLIAAVKGVFDHRMKCWQKWEDAQITLLKKREAEAKMMVANKPDKIQQAKNEIREWEAKVQQGERDFEQISKTIRKEVGRFEKERVKDFKTVIIKYLESLVQTQQQLIKYWEAFLPEAKAIA [SNX2] | 0.424 | -0.352 | 0.143 | -0.226 | 51.4 | 51.2 |
| MAAEWASRFWLWATLLIPAAAVYEDQVGKFDWRQQYVGKVKFASLEFSPGSKKLVVATEKNVIAALNSRTGEILWRHVDKGTAEGAVDAMLLHGQDVITVSNGGRIMRSWETNIGGLNWEITLDSGSFQALGLVGLQESVRYIAVLKKTTLALHHLSSGHLKWVEHLPESDSIHYQMVYSYGSGVVWALGVVPFSHVNIVKFNVEDGEIVQQVRVSTPWLQHLSGACGVVDEAVLVCPDPSSRSLQTLALETEWELRQIPLQSLDLEFGSGFQPRVLPTQPNPVDASRAQFFLHLSPSHYALLQYHYGTLSLLKNFPQTALVSFATTGEKTVAAVMACRNEVQKSSSSEDGSMGSFSEKSSSKDSLACFNQTYTINLYLVETGRRLLDTTITFSLEQSGTRPERLYIQVFLKKDDSVGYRALVQTEDHLLLFLQQLAGKVVLWSREESLAEVVCLEMVDLPLTGAQAELEGEFGKKADGLLGMFLKRLSSQLILLQAWTSHLWKMFYDARKPRSQIKNEINIDTLARDEFNLQKMMVMVTASGKLFGIESSSGTILWKQYLPNVKPDSSFKLMVQRTTAHFPHPPQCTLLVKDKESGMSSLYVFNPIFGKWSQVAPPVLKRPILQSLLLPVMDQDYAKVLLLIDDEYKVTAFPATRNVLRQLHELAPSIFFYLVDAEQGRLCGYRLRKDLTTELSWELTIPPEVQRIVKVKGKRSSEHVHSQGRVMGDRSVLYKSLNPNLLAVVTESTDAHHERTFIGIFLIDGVTGRIIHSSVQKKAKGPVHIVHSENWVVYQYWNTKARRNEFTVLELYEGTEQYNATAFSSLDRPQLPQVLQQSYIFPSSISAMEATITERGITSRHLLIGLPSGAILSLPKALLDPRRPEIPTEQSREENLIPYSPDVQIHAERFINYNQTVSRMRGIYTAPSGLESTCLVVAYGLDIYQTRVYPSKQFDVLKDDYDYVLISSVLFGLVFATMITKRLAQVKLLNRAWR [EMC1] | 1.42 | 1.57 | 0.0605 | -0.266 | 55.1 | 54.8 |
| MAAGGRMEDGSLDITQSIEDDPLLDAQLLPHHSLQAHFRPRFHPLPTVIIVNLLWFIHLVFVVLAFLTGVLCSYPNPNEDKCPGNYTNPLKVQTVIILGKVILWILHLLLECYIQYHHSKIRNRGYNLIYRSTRHLKRLALMIQSSGNTVLLLILCMQHSFPEPGRLYLDLILAILALELICSLICLLIYTVKIRRFNKAKPEPDILEEEKIYAYPSNITSETGFRTISSLEEIVEKQGDTIEYLKRHNALLSKRLLALTSSDLGCQPSRT [TMEM192] | 0.271 | -1.67 | 0.0852 | -0.241 | 55.6 | 55.9 |
| MAAGTAAALAFLSQESRTRAGGVGGLRVPAPVTMDSFFFGCELSGHTRSFTFKVEEEDDAEHVLALTMLCLTEGAKDECNVVEVVARNHDHQEIAVPVANLKLSCQPMLSLDDFQLQPPVTFRLKSGSGPVRITGRHQIVTMSNDVSEEESEEEEEDSDEEEVELCPILPAKKQGGRP [NPM3] | -0.577 | -2.29 | -0.153 | 0.0933 | 54 | 53 |
| MAAHGGSAASSALKGLIQQFTTITGASESVGKHMLEACNNNLEMAVTMFLDGGGIAEEPSTSSASVSTVRPHTEEEVRAPIPQKQEILVEPEPLFGAPKRRRPARSIFDGFRDFQTETIRQEQELRNGGAIDKKLTTLADLFRPPIDLMHKGSFETAKECGQMQNKWLMINIQNVQDFACQCLNRDVWSNEAVKNIIREHFIFWQVYHDSEEGQRYIQFYKLGDFPYVSILDPRTGQKLVEWHQLDVSSFLDQVTGFLGEHGQLDGLSSSPPKKCARSESLIDASEDSQLEAAIRASLQETHFDSTQTKQDSRSDEESESELFSGSEEFISVCGSDEEEEVENLAKSRKSPHKDLGHRKEENRRPLTEPPVRTDPGTATNHQGLPAVDSEILEMPPEKADGVVEGIDVNGPKAQLMLRYPDGKREQITLPEQAKLLALVKHVQSKGYPNERFELLTNFPRRKLSHLDYDITLQEAGLCPQETVFVQERN [UBXN7] | -0.156 | -0.248 | 0.148 | -0.138 | 52.8 | 52.8 |
| MAAHRPGPLKQQNKAHKGGRHRGRGSAQRDGKGRLALKTLSKKVRKELSRVDQRHRASQLRKQKKEAVLAEKRQLGGKDGPPHQVLVVPLHSRISLPEAMQLLQDRDTGTVHLNELGNTQNFMLLCPRLKHRWFFTSARPGDLHVVLDMAKVADTILFLLDPLEGWDSTGDYCLSCLFAQGLPTYTLAVQGISGLPLKKQIDTRKKLSKAVEKRFPHDKLLLLDTQQEAGMLLRQLANQKQQHLAFRDRRAYLFAHAVDFVPSEENNLVGTLKISGYVRGQTLNVNRLLHIVGYGDFQMKQIDAPGDPFPLNPRGIKPQKDPDMAMEICATDAVDDMEEGLKVLMKADPGRQESLQAEVIPDPMEGEQTWPTEEELSEAKDFLKESSKVVKKVPKGTSSYQAEWILDGGSQSGGEGDEYEYDDMEHEDFMEEESQDESSEEEEEYETMTIGESVHDDLYDKKVDEEAEAKMLEKYKQERLEEMFPDEVDTPRDVAARIRFQKYRGLKSFRTSPWDPKENLPQDYARIFQFQNFTNTRKSIFKEVEEKEVEGAEVGWYVTLHVSEVPVSVVECFRQGTPLIAFSLLPHEQKMSVLNMVVRRDPGNTEPVKAKEELIFHCGFRRFRASPLFSQHTAADKHKLQRFLTADMALVATVYAPITFPPASVLLFKQKSNGMHSLIATGHLMSVDPDRMVIKRVVLSGHPFKIFTKMAVVRYMFFNREDVLWFKPVELRTKWGRRGHIKEPLGTHGHMKCSFDGKLKSQDTVLMNLYKRVFPKWTYDPYVPEPVPWLKSEISSTVPQGGME [TSR1] | 0.699 | 5.63 | -0.634 | 0.0446 | 48.3 | 50.6 |
| MAALAPLPPLPAQFKSIQHHLRTAQEHDKRDPVVAYYCRLYAMQTGMKIDSKTPECRKFLSKLMDQLEALKKQLGDNEAITQEIVGCAHLENYALKMFLYADNEDRAGRFHKNMIKSFYTASLLIDVITVFGELTDENVKHRKYARWKATYIHNCLKNGETPQAGPVGIEEDNDIEENEDAGAASLPTQPTQPSSSSTYDPSNMPSGNYTGIQIPPGAHAPANTPAEVPHSTGVASNTIQPTPQTIPAIDPALFNTISQGDVRLTPEDFARAQKYCKYAGSALQYEDVSTAVQNLQKALKLLTTGRE [VTA1] | -1.99 | -2.34 | 0.0799 | 0.325 | 50.9 | 50.4 |
